Target: human neonatal Fc-receptor (FcRn) (human) (UniProt P55899)
Assay: FcRn affinity chromatography

| retention time [min] | retention time on FcRn affinity column [min] | Substance | other results |
| --- | --- | --- | --- |
| 45.6 | – | anti-HER2 antibody, symmetrically modified, E258H | – |
| 52 | – | anti-HER2 antibody, symmetrically modified, N434H | – |
| 46 | – | anti-HER2 antibody, symmetrically modified, T256H | – |
| – | 51.8 | bispecific anti-VEGF/ANG2 antibody (knobs-into-holes), no FcRn affecting mutation (bispecific antibody) | – |
| – | 48.8 | bispecific anti-VEGF/ANG2 antibody (knobs-into-holes), one chain with H435A (bispecific antibody) | – |
| – | 46.3 | bispecific anti-VEGF/ANG2 antibody (knobs-into-holes), one chain with L251D/L314D/L432D (bispecific antibody) | – |

Continued, substance first:

| Substance | retention time [min] | retention time on FcRn affinity column [min] | other results |
| --- | --- | --- | --- |
| IgG1 Fc-region, symmetric, L234A/L235A/P329G + Y436A | – | – | FcRn-affinity column retention time: 41.3 min |
| anti-HER2 antibody, symmetrically modified, D98E | 46.2 | – | – |
| anti-HER2 antibody, symmetrically modified, E430H | 46.4 | – | – |
| anti-HER2 antibody, symmetrically modified, K288E | 45.2 | – | – |
| anti-HER2 antibody, symmetrically modified, K290H | 46.2 | – | – |
| anti-HER2 antibody, symmetrically modified, K317H | 46.3 | – | – |
| anti-HER2 antibody, symmetrically modified, L309H | 45.5 | – | – |
| anti-HER2 antibody, symmetrically modified, Q311H | 46.3 | – | – |
| anti-HER2 antibody, symmetrically modified, R255D | 41.4 | – | – |
| anti-HER2 antibody, wild-type | 46.3 | – | – |
| bispecific anti-VEGF/ANG2 antibody (knobs-into-holes), one chain with H310A (bispecific antibody) | – | 48.4 | – |
| bispecific anti-VEGF/ANG2 antibody (knobs-into-holes), one chain with H310A/H433A/Y436A (bispecific antibody) | – | 46.7 | – |
| bispecific anti-VEGF/ANG2 antibody (knobs-into-holes), one chain with I253A (bispecific antibody) | – | 48.8 | – |
| bispecific anti-VEGF/ANG2 antibody (knobs-into-holes), one chain with M252Y/S254T/T256E (bispecific antibody) | – | 56.2 | – |

— patent US20160068613A1
